The target in the experiment is SspA of F. tularensis SCHU S4 fused to the Zif protein (F. tularensis SCHU S4). Put plainly: two-hybrid.

In turn, “MglA of F. tularensis SCHU S4 fused to the ω subunit of E. coli RNA polymerase (natural protein)” yielded a β-galactosidase activity in strain AW23 of 2400 AU and a β-galactosidase activity in strain AW24 of 26000 AU.

The values are drawn from PMC3792966.
